# Experimental data as given in US20130039916A1 (Merck Sharp & Dohme, published 2013).
# “And” between values parts separate entries of the source, which are not always exact repeats. Equal values may be shown once.
# T1: non-tagged, non-linked native human IL-23p19/p40 coexpressed in SF9 cells (eBioscience CAT No. 34-8239) (human, UniProt P29460 23-328)
# T1 construct: Bought; also called eBioscience human IL-23
# T1 sequence 1: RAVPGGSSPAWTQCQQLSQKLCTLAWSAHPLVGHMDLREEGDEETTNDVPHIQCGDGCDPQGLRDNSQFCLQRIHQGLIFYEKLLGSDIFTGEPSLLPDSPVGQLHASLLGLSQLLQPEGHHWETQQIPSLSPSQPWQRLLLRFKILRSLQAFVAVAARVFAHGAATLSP
# T1 sequence 2: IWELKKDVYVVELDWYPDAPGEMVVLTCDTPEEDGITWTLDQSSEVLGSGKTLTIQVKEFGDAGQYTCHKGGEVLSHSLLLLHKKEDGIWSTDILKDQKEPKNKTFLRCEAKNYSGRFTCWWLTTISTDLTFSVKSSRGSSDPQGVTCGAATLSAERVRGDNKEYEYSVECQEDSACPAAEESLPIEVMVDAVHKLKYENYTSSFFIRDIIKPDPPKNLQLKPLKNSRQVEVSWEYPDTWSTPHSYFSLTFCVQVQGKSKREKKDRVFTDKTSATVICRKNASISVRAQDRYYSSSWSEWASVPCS
# T2: "N222Q" human IL-23 (elastikine sequence with Asn222 to Gln in the p40 subunit, expressed in SF9 cells) (human, UniProt P29460 23-328)
# T2 chain 1: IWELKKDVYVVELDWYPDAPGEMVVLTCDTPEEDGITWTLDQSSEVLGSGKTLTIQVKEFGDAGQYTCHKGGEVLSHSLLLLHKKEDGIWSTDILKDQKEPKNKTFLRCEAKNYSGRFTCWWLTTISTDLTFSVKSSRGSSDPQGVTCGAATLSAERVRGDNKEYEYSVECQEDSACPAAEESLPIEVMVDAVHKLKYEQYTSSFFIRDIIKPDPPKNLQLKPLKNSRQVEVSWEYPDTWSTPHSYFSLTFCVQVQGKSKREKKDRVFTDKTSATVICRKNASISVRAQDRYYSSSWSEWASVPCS
# T2 chain 2: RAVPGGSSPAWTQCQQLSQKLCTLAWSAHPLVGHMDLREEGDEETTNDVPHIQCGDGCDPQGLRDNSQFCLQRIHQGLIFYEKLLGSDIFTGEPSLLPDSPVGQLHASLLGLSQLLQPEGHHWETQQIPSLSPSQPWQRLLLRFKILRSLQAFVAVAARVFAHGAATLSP
# T3: "Non-linked" human IL-23 (human p40 coexpressed in 293T cells with human p19:FLAG-tag peptide) (human, UniProt P29460 23-328)
# T3 sequence 1: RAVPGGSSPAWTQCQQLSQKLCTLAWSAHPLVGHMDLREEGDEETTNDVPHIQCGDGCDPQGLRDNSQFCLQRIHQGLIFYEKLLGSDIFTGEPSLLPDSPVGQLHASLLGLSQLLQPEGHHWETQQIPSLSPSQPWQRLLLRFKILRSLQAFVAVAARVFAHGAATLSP
# T3 sequence 2: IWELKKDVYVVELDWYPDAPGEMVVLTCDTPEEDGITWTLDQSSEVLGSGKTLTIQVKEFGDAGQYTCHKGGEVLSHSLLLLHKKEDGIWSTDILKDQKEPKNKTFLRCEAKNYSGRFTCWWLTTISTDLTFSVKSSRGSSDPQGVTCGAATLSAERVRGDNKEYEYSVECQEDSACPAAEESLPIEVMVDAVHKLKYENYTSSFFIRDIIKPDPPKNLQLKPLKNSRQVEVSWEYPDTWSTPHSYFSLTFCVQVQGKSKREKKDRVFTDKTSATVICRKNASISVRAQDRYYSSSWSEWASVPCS
# T4: human IL-23 (form not stated) (human, UniProt P29460 23-328)
# T4 sequence 1: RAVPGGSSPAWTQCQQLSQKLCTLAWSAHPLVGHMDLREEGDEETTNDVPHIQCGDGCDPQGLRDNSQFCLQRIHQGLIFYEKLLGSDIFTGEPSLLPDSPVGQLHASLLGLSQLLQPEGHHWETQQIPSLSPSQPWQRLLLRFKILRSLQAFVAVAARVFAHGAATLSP
# T4 sequence 2: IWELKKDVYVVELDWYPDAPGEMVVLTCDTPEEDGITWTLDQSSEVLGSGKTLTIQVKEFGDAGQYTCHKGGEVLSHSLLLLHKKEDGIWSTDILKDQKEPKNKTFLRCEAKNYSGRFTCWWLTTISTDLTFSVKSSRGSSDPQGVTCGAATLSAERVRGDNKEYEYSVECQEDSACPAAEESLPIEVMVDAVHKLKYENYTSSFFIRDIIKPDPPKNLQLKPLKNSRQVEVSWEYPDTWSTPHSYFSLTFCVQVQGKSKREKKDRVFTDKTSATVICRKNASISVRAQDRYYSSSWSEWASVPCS
# B1: humanized anti-human IL-23p19 antibody 6H12 (antibody, human IgG1, kappa, V domains shown)
# VH: QVQLVQSGAEVKKPGASVKVSCKASGYTFNRYLIHWVRQAPGQGLEWMGYINPNNAGTNYNEKFKGRVTMTTDTSTSTAYMELRSLRSDDTAVYYCARNWDQAYWGQGTLVTVSS
# VL: DIQMTQSPSSLSASVGDRVTITCRASQSISDYLHWYQQKPGKAPKLLIYYTSQSISGVPSRFSGSGSGTDFTLTISSLQPEDFATYYCQNGHSFPFTFGQGTKVEIKR
# notes: Full-length humanized antibody, human IgG1 / kappa; also called hu6H12; hum6H12
# B2: humanized antibody 17G8 with R98A substitution in the heavy chain of SEQ ID NO: 129 (antibody, V domains shown)
# VH: QVQLVQSGAEVKKPGASVKVSCKASGYTFTSYGIKWVRQAPGQGLEWMGEIFPRSGQTIYNEKFKGRVTMTTDTSTSTAYMELRSLRSDDTAVYYCAANWDLDYWGQGTLVTVSS
# VL: DIQMTQSPSSLSASVGDRVTITCRASQSISDYLHWYQQKPGKAPKLLIYYASQSISGVPSRFSGSGSGTDFTLTISSLQPEDFATYYCQNGHSFPYTFGQGTKVEIKR
# Tests used:
# [1] = target: T1, non-tagged, non-linked native human …; experiment: BIAcore SPR, antibody immobilised on CM5 chip, IL-23 in solution
# Method: (§1) BIAcore determinations are performed essentially as described at Example 4 of U.S. Patent Application Publication No. 2007/0048315. Briefly, ligands (anti-IL-23 mAbs) are immobilized on a BIAcore CM5 sensor chip using standard amine-coupling procedure. IL-23 (various forms) is diluted in PBS to produce various concentrations. Kinetic constants for the various interactions are determined using BIAevaluation software 3.1. The Kd is determined using the calculated dissociation and association rate constants. In certain experiments, proteins are used at the following concentrations: anti-IL-23 mAb hu7G10 in PBS at 0.33 mg/mL; anti-IL-23 mAb hu6H12 in PBS at 0.2 mg/mL; bac-wt human IL-23 in PBS at 0.30 mg/mL; eBioscience human IL-23 in PBS at 0.10 mg/mL; N222Q human IL-23 in PBS at 0.33 mg/mL.
# [2] = target: T2, "N222Q" human IL-23 (elastikine …); experiment: as above
# Method: as §1
# [3] = target: T5, "Elastikine" human IL-23 (single chain FLAG-tag:GLU-tag:human p40:elasti-linker:human p19, expressed in 293T … (human, UniProt P29460 23-328)); experiment: KinExA, solution equilibrium
# T5 construct: not shown: FLAG-tag peptide; GLU-tag peptide; elasti-linker peptide, derived from R&D Systems commercial IL-23
# Method: The equilibrium dissociation constant (Kd) for anti human IL-23 antibodies is determined using the KinExA 3000 instrument. Sapidyne Instruments Inc., Boise Id., USA KinExA uses the principle of the Kinetic Exclusion Assay method based on measuring the concentration of uncomplexed antibody in a mixture of antibody, antigen and antibody-antigen complex. The concentration of free antibody is measured by exposing the mixture to a solid-phase immobilized antigen for a very brief period of time. In practice, this is accomplished by flowing the solution phase antigen-antibody mixture past antigen-coated particles trapped in a flow cell. Data generated by the instrument are analyzed using custom software. Equilibrium constants are calculated using a mathematical theory based on the following assumptions:
# 98 micron PMMA particles (Sapidyne, Cat No. 440198) are coated with biotinylated rhIL-23 according to Sapidyne “Protocol for coating PMMA particles with biotinylated ligands having short or nonexistent linker arms”. To make biotinylated rhIL-23, EZ-link TFP PEO-biotin (Pierce, Cat. No. 21219) is used according to manufacturer's recommendations (Pierce bulletin 0874). Experimental procedures are done according to the KinExA 3000 manual.
# KinExA experiments are performed essentially as described at Example 3 of U.S. Patent Application Publication No. 2007/0048315.
# [4] = target: T1, non-tagged, non-linked native human …; experiment: cell-based or functional assay
# [5] = target: T5, "Elastikine" human IL-23 (single chain …); experiment: cell-based or functional assay
# [6] = target: T3, "Non-linked" human IL-23 (human p40 …); experiment: cell-based or functional assay
# [7] = target: T4, human IL-23 (form not stated); experiment: cell-based or functional assay
Binder,Kd [1] [pM],Kd [2] [pM],Kd [3],"IC50 (pM), blocking of Ba/F3 cell proliferation [4] [pM]","IC50 (pM), blocking of Ba/F3 cell proliferation [5] [pM]","IC50 (pM), blocking of Ba/F3 cell proliferation [6] [pM]",fold decrease of IC50 in the Ba/F3 proliferation bioassay against the heavy chain of SEQ ID NO: 129 without R98A [7] [fold]
B1,4100,500,28 pM and 36 pM,3200,27,4000,
B2,,,,,,,> 1000
